Key:
[1] = target: α2β1 integrin (VLA-2) on HT1080 cells (UniProt P17301 30-1181; P05556 21-798); assay: cell-based or functional assay
[2] = target: complement component C1q (in baby rabbit complement) (rabbit); assay: cell-based or functional assay

α2β1 integrin (VLA-2) on HT1080 cells, sequence (P17301 30-1181, chain 1 of 2): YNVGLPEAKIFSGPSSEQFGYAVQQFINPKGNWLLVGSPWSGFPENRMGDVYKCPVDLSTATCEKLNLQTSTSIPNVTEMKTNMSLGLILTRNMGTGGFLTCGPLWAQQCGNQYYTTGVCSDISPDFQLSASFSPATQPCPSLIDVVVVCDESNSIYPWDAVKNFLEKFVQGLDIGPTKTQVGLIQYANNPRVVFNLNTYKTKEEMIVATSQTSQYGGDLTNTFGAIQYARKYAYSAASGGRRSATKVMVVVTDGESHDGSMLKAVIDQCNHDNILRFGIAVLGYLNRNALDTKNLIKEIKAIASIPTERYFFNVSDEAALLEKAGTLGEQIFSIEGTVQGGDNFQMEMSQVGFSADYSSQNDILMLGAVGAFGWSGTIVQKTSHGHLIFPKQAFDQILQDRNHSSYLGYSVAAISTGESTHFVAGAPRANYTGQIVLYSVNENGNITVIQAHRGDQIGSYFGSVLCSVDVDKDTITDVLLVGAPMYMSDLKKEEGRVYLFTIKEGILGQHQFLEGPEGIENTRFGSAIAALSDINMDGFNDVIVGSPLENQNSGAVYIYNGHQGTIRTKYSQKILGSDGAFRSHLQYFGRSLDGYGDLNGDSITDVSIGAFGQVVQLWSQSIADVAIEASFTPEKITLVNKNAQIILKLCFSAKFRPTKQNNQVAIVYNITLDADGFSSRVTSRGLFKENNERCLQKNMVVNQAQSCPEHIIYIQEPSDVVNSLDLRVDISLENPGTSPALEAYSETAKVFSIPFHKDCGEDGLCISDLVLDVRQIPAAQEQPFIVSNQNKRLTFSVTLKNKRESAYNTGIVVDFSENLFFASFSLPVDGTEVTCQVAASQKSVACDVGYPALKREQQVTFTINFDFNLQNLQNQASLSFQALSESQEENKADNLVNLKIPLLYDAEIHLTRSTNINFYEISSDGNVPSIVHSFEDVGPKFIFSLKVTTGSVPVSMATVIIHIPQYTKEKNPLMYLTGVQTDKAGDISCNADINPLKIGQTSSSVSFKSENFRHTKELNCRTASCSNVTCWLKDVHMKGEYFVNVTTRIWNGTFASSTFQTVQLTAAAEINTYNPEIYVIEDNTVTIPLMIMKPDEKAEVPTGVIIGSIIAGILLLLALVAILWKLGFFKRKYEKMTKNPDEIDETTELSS
α2β1 integrin (VLA-2) on HT1080 cells, sequence (P05556 21-798, chain 2 of 2): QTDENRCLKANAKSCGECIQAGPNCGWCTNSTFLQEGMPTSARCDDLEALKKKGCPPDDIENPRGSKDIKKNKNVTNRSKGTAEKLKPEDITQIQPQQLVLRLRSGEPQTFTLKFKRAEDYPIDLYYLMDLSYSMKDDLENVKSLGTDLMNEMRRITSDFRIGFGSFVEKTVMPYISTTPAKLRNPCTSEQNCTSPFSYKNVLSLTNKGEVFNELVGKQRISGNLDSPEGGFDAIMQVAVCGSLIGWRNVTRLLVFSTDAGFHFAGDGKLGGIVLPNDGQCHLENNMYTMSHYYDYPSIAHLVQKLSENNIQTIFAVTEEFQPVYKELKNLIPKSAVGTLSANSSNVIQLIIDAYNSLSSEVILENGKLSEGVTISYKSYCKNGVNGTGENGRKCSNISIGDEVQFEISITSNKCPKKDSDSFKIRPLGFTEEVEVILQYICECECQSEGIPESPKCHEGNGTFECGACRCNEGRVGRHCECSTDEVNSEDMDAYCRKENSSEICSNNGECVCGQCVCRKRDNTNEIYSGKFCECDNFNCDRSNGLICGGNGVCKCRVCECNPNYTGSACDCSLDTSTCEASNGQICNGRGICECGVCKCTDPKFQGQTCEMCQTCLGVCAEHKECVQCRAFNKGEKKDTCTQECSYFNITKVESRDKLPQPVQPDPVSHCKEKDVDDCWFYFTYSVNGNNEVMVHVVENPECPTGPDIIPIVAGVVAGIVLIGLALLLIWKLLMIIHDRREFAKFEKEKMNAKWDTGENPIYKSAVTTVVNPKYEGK

Binder | ADCC fold increase (LDH release, HT1080 target cells with human PBMC, antibody 0.1 µg/ml) [1] | CDC fold increase (LDH release, HT1080 cells, baby rabbit complement, antibody 1 µg/ml) [2] | CDC fold increase over the parental anti-VLA-2 IgG4 antibody (LDH release, HT1080 cells, baby rabbit complement, antibody 1 µg/ml) [2]
anti-VLA-2 IgG1-S298A/S324N (antibody) heavy: not shown light: DFVMTQSPAFLSVTPGEKVTITCSAQSSVNYIHWYQQKPDQAPKKLIYDTSKLASGVPSRFSGSGSGTDYTFTISSLEAEDAATYYCQQWTTNPLTFGQGTKVEIKRTVAAPSVFIFPPSDEQLKSGTASVVCLLNNFYPREAKVQWKVDNALQSGNSQESVTEQDSKDSTYSLSSTLTLSKADYEKHKVYACEVTHQGLSSPVTKSFNRGEC | 2 fold | ≥ 6.6 fold | 
anti-VLA-2 IgG1-S298A (antibody) heavy: not shown light: DFVMTQSPAFLSVTPGEKVTITCSAQSSVNYIHWYQQKPDQAPKKLIYDTSKLASGVPSRFSGSGSGTDYTFTISSLEAEDAATYYCQQWTTNPLTFGQGTKVEIKRTVAAPSVFIFPPSDEQLKSGTASVVCLLNNFYPREAKVQWKVDNALQSGNSQESVTEQDSKDSTYSLSSTLTLSKADYEKHKVYACEVTHQGLSSPVTKSFNRGEC | 1.8 fold |  | 
anti-VLA-2 IgG1 (antibody) heavy: not shown light: DFVMTQSPAFLSVTPGEKVTITCSAQSSVNYIHWYQQKPDQAPKKLIYDTSKLASGVPSRFSGSGSGTDYTFTISSLEAEDAATYYCQQWTTNPLTFGQGTKVEIKRTVAAPSVFIFPPSDEQLKSGTASVVCLLNNFYPREAKVQWKVDNALQSGNSQESVTEQDSKDSTYSLSSTLTLSKADYEKHKVYACEVTHQGLSSPVTKSFNRGEC | 1.7 fold |  | 
anti-VLA-2 IgG1-E269D/S298A/S324N (antibody) heavy: QVQLQESGPGLVKPSETLSLTCTVSGFSLTNYGIHWIRQPPGKGLEWLGVIWARGFTNYNSALMSRLTISKDNSKNQVSLKLSSVTAADTAVYYCARANDGVYYAMDYWGQGTLVTVSSASTKGPSVFPLAPSSKSTSGGTAALGCLVKDYFPEPVTVSWNSGALTSGVHTFPAVLQSSGLYSLSSVVTVPSSSLGTQTYICNVNHKPSNTKVDKKVEPKSCDKTHTCPPCPAPELLGGPSVFLFPPKPKDTLMISRTPEVTCVVVDVSHDDPEVKFNWYVDGVEVHNAKTKPREEQYNATYRVVSVLTVLHQDWLNGKEYKCKVNNKALPAPIEKTISKAKGQPREPQVYTLPPSRDELTKNQVSLTCLVKGFYPSDIAVEWESNGQPENNYKTTPPVLDSDGSFFLYSKLTVDKSRWQQGNVFSCSVMHEALHNHYTQKSLSLSPGK light: DFVMTQSPAFLSVTPGEKVTITCSAQSSVNYIHWYQQKPDQAPKKLIYDTSKLASGVPSRFSGSGSGTDYTFTISSLEAEDAATYYCQQWTTNPLTFGQGTKVEIKRTVAAPSVFIFPPSDEQLKSGTASVVCLLNNFYPREAKVQWKVDNALQSGNSQESVTEQDSKDSTYSLSSTLTLSKADYEKHKVYACEVTHQGLSSPVTKSFNRGEC | 1.7 fold | ≥ 9 fold | 
anti-VLA-2 IgG1-E269D (antibody) heavy: not shown light: DFVMTQSPAFLSVTPGEKVTITCSAQSSVNYIHWYQQKPDQAPKKLIYDTSKLASGVPSRFSGSGSGTDYTFTISSLEAEDAATYYCQQWTTNPLTFGQGTKVEIKRTVAAPSVFIFPPSDEQLKSGTASVVCLLNNFYPREAKVQWKVDNALQSGNSQESVTEQDSKDSTYSLSSTLTLSKADYEKHKVYACEVTHQGLSSPVTKSFNRGEC | 1.5 fold |  | 
anti-VLA-2 IgG1-S324N (antibody) heavy: not shown light: DFVMTQSPAFLSVTPGEKVTITCSAQSSVNYIHWYQQKPDQAPKKLIYDTSKLASGVPSRFSGSGSGTDYTFTISSLEAEDAATYYCQQWTTNPLTFGQGTKVEIKRTVAAPSVFIFPPSDEQLKSGTASVVCLLNNFYPREAKVQWKVDNALQSGNSQESVTEQDSKDSTYSLSSTLTLSKADYEKHKVYACEVTHQGLSSPVTKSFNRGEC |  | ≥ 6.4 fold | 
anti-VLA-2 IgG-1133 (antibody) heavy: QVQLQESGPGLVKPSETLSLTCTVSGFSLTNYGIHWIRQPPGKGLEWLGVIWARGFTNYNSALMSRLTISKDNSKNQVSLKLSSVTAADTAVYYCARANDGVYYAMDYWGQGTLVTVSSASTKGPSVFPLAPSSKSTSGGTAALGCLVKDYFPEPVTVSWNSGALTSGVHTFPAVLQSSGLYSLSSVVTVPSSSLGTQTYICNVNHKPSNTKVDKKVEPKSCDKTHTCPPCPAPELLGGPSVFLFPPKPKDTLMISRTPEVTCVVVDVSHEDPEVQFKWYVDGVEVHNAKTKPREEQYNSTFRVVSVLTVLHQDWLNGKEYKCKVSNKALPAPIEKTISKTKGQPREPQVYTLPPSREEMTKNQVSLTCLVKGFYPSDIAVEWESSGQPENNYNTTPPMLDSDGSFFLYSKLTVDKSRWQQGNIFSCSVMHEALHNRFTQKSLSLSPGK light: DFVMTQSPAFLSVTPGEKVTITCSAQSSVNYIHWYQQKPDQAPKKLIYDTSKLASGVPSRFSGSGSGTDYTFTISSLEAEDAATYYCQQWTTNPLTFGQGTKVEIKRTVAAPSVFIFPPSDEQLKSGTASVVCLLNNFYPREAKVQWKVDNALQSGNSQESVTEQDSKDSTYSLSSTLTLSKADYEKHKVYACEVTHQGLSSPVTKSFNRGEC |  | ≥ 5.6 fold | 
anti-VLA-2 IgG-3133 (antibody) heavy: QVQLQESGPGLVKPSETLSLTCTVSGFSLTNYGIHWIRQPPGKGLEWLGVIWARGFTNYNSALMSRLTISKDNSKNQVSLKLSSVTAADTAVYYCARANDGVYYAMDYWGQGTLVTVSSASTKGPSVFPLAPCSRSTSGGTAALGCLVKDYFPEPVTVSWNSGALTSGVHTFPAVLQSSGLYSLSSVVTVPSSSLGTQTYTCNVNHKPSNTKVDKRVEPKSCDKTHTCPPCPAPELLGGPSVFLFPPKPKDTLMISRTPEVTCVVVDVSHEDPEVQFKWYVDGVEVHNAKTKPREEQYNSTFRVVSVLTVLHQDWLNGKEYKCKVSNKALPAPIEKTISKTKGQPREPQVYTLPPSREEMTKNQVSLTCLVKGFYPSDIAVEWESSGQPENNYNTTPPMLDSDGSFFLYSKLTVDKSRWQQGNIFSCSVMHEALHNRFTQKSLSLSPGK light: DFVMTQSPAFLSVTPGEKVTITCSAQSSVNYIHWYQQKPDQAPKKLIYDTSKLASGVPSRFSGSGSGTDYTFTISSLEAEDAATYYCQQWTTNPLTFGQGTKVEIKRTVAAPSVFIFPPSDEQLKSGTASVVCLLNNFYPREAKVQWKVDNALQSGNSQESVTEQDSKDSTYSLSSTLTLSKADYEKHKVYACEVTHQGLSSPVTKSFNRGEC |  | ≥ 8.6 fold | 
anti-VLA-2 IgG3 (antibody) heavy: QVQLQESGPGLVKPSETLSLTCTVSGFSLTNYGIHWIRQPPGKGLEWLGVIWARGFTNYNSALMSRLTISKDNSKNQVSLKLSSVTAADTAVYYCARANDGVYYAMDYWGQGTLVTVSSASTKGPSVFPLAPCSRSTSGGTAALGCLVKDYFPEPVTVSWNSGALTSGVHTFPAVLQSSGLYSLSSVVTVPSSSLGTQTYTCNVNHKPSNTKVDKRVELKTPLGDTTHTCPRCPEPKSCDTPPPCPRCPEPKSCDTPPPCPRCPEPKSCDTPPPCPRCPAPELLGGPSVFLFPPKPKDTLMISRTPEVTCVVVDVSHEDPEVQFKWYVDGVEVHNAKTKPREEQYNSTFRVVSVLTVLHQDWLNGKEYKCKVSNKALPAPIEKTISKTKGQPREPQVYTLPPSREEMTKNQVSLTCLVKGFYPSDIAVEWESSGQPENNYNTTPPMLDSDGSFFLYSKLTVDKSRWQQGNIFSCSVMHEALHNRFTQKSLSLSPGK light: DFVMTQSPAFLSVTPGEKVTITCSAQSSVNYIHWYQQKPDQAPKKLIYDTSKLASGVPSRFSGSGSGTDYTFTISSLEAEDAATYYCQQWTTNPLTFGQGTKVEIKRTVAAPSVFIFPPSDEQLKSGTASVVCLLNNFYPREAKVQWKVDNALQSGNSQESVTEQDSKDSTYSLSSTLTLSKADYEKHKVYACEVTHQGLSSPVTKSFNRGEC |  |  | ≥ 9.6 fold
